From the DeepSol protein solubility set

Test: soluble on expression in E. coli; label from the status in PepcDB or PDB records

Sequence | soluble on expression in E. coli
MSLSDPVKVFLADNLRRYDAAVLVMSLPGFYRISADLMIEKNHDVPVVVVDDAGRFAVAASAGHAGGSDELAAYIAGIIDGQAVITDGIESGGRVSVEKIARSLLATIANPECIIPVNAAIANGEHVPVIFRSKKRSMLRRLFAESSDEKHGYAIVLADEPGEDANTCYLIPDDISIGIGFNSSADAELISACLERFLEEAGLAWEDIDYVSSIKDLPDVSIIRKGTRFVKFDPADIRDIDPEMLTHVSDKARDVFGVPGVAEPCAIRSLGPGSKIFLPFRSCGRSVTLAAARREGHHHHHH | soluble
MDSRSLSVHDGAMQTLTVPDSGLAPLLPGQRLARGVCRHLRSHDFVSVVELVPAPGLRVDVMALGPKGEIWVVECKSSRADYQSDRKWQGYLDWCDRFFFAVDEAFPVDLLPEGTGLMLADGYDAEILRIGPEGRLAPARRKAVIQGFARHAALRLQGLRDPGAFPG | not soluble
MPRPDNVPVYTMRQLAAFVAVAETGTISGAAERMHLSQSALSAAVTDLEKALKAQLCVRRRARGVQLTPTGEAVLSRARALLQQAGELQSDASGEGGVVAGPIAVGCYPALGPTILPSMLYAFTAEYPRASVEFREDTQNRLRTQLEGGELDVAIVYDLDLSPEWQTVPLMTREPMVVLGAEHPLAGVDGPVRLADLAEHPMVLLDAPPSTNHAMDVCREAGFAPRVAYRTANFETARAFVGRGLGWTLLLQRPRVDVTYEGLPVVVKPIAEPKPASVAVVVAWHQEATLSRVARAFIRFVTA | not soluble
MALNADDEDFEWEPPSEAEMKVIQARRERQDKISKLMGDYLLKGYKMLGECCELCGTILLQDKQKKNYCVACQELDSDVDKDNPALNAQAALSQVRERQLATQPVPESNGASSSEPPLSITGQPRPEHCEGAASGLRGPPPTVQPTPLSIPTPASNFLPPSNPPVQTTPPVGSSGSSLHHHPALSSAEEAVLHKLRWATQELQHAASVEASIQLCNLIRGCAESLRSLKELQLS | not soluble
MGSDKIHHHHHHMRWGGASPIEATVRDLSLSRIYMRVTGDSLSTNAQDCPSSEILRIAVVSSPRSGNSWIRSTLAGALSMQEIAIHNYLDAPAVLPQRCFLQIHWYREPNFQAWLRENQFRVLTVARHPLDVLVSALHYIRYEPGTSRWLEGNVKLPGELANASPSSPEFLEYALGMGAEDLLSITYQWWNDPEVLRLRYEDAVANPEVVLGNQIAALGGSAQDVVPWLARLSIDKMRATPNRHGWQGSPGLWRRLIVPQDAIRIYRRHRRIFDTLGYTIRPYFLTRASAYRNWMERL | not soluble
MDHDTEVIVKDFNSILEELTFNSRPIITTLTKLAEENISCAQYFVDAIESRIEKCMPKQKLYAFYALDSICKNVGSPYTIYFSRNLFNLYKRTYLLVDNTTRTKLINMFKLWLNPNDTGLPLFEGSALEKIEQFLIKASAAALE | soluble
GLNMYVAGKATLNYLFERYMDTKYNLRENTKVNYKYMYDNYVRNTIGKRLIADIKYSDIVYFYKSLITEKGLELNTVDTIHTVIHPVFSMAVRDDVIRKNPASGVLADIKKESGKNKGIRHALTIEQQRVFMKYMIEEEQFNHWIPIFTILLGTGCRVGEFIGLRWEDVDFKQKVISINHSIAYVCYGKEDGRKSHYAISLPKTEAGIRYIPMTDEVYDVFKAEYYRQQENGFSQFSIEGMSGFIFTNRCGRIYNQQTLNKGLKRISENYNQKELIDA | not soluble
MGSDKIHHHHHHMNKDLKAIKWFITTQILKDPFNPAYATFKVTSRCNLRCTFCSPSYYSGELGEGSTERVKKIIDNLRDSSIVVLSFEGGEPTYRPDILDLLEYAHDGSFYIMLTTNGYRLKDEDFLTKLADKIDFLHYSIDEYHWNVKELENLCRFRKYGLKVNVQTVVTRYNLYKLEEKVRKVAECGYKILAMPAVDYPNSKVKLAPDPYEFYKVLYDLKRKYGSTLNNSWGFINAIIGKVPKRVVSYAITIYPNGDLPYPDDINGEIVGNVAEEPLNKILQSSKVKELQQKMLENQAKFEYLHLQTASFNNIRDLASYVSEMLRWRFTGRA | not soluble
MGSDKIHHHHHHMTTQFACSGIELELFRYPSQQASNLQAWDAADEHLVKYLIDTEITATTTAILNDNFGALTCALTMQYPHSELLVETDAKTSLLGYQQNLLHNKLASTNIHWLNSRETLPQNIQLVLMKLPKNLHYFGQQLARLSTVLPAGTQILIGAKAKSINPALLASIEKNLGPASASLAWKKTRVISCISDGKKRSLAKAVSWNVDELKLTISNLANVFAANKLDIGARIMLDNMPKGEFKHIIDLGCGNGILGLHAKQCYPNAQIHFVDDSDMAIASAKHNWQANELDTPSQDLQSQDPQTEQMPQAFFHWDDCLSNLPADVEPDLVICNPPFHQGEAITDHIAWQMFVDAHKRLKKGGLLHIVGNRHLAYHVKINRIFKNCTTVASNGKFVILQAIK | not soluble
MKNPYVQITDQEQYKKSIRRIPPKDPNIFLIERPTAGEIIALWWTTSSRGKSTDKYIPKYFKRIYRVDMIKQRKLFIKANVISEENNTYVLTELGEMLVHKYFYIIEEHNNSSNDSFNTERRKLADKILYSLGGEI | not soluble
MATVSRLRPYATTVFAEMSALATRIGAVNLGQGFPDEDGPPKMLQAAQDAIAGGVNQYPPGPGSAPLRRAIAAQRRRHFGVDYDPETEVLVTVGATEAIAAAVLGLVEPGSEVLLIEPFYDSYSPVVAMAGAHRVTVPLVPDGRGFALDADALRRAVTPRTRALIINSPHNPTGAVLSATELAAIAEIAVAANLVVITDEVYEHLVFDHARHLPLAGFDGMAERTITISSAAKMFNCTGWKIGWACGPAELIAGVRAAKQYLSYVGGAPFQPAVALALDTEDAWVAALRNSLRARRDRLAAGLTEIGFAVHDSYGTYFLCADPRPLGYDDSTEFCAALPEKVGVAAIPMSAFCDPAAGQASQQADVWNHLVRFTFCKRDDTLDEAIRRLSVLAERPATGVPRGLEHHHHHH | soluble
GHHHHHHEAIAKRLDACQDQLLELYEENSIDIHKHIMHWKCIRLESVLLHKAKQMGLSHIGLQVVPPLTVSETKGHNAIEMQMHLESLAKTQYGVEPWTLQDTSYEMWLTPPKRCFKKQGNTVEVKFDGCEDNVMEYVVWTHIYLQDNDSWVKVTSSVDAKGIYYTCGQFKTYYVNFNKEAQKYGSTNHWEVCYGSTVICSPASVSSKKKK | soluble
MSDSFGVYVHVPFCSSRCGYCDFNTYTPGELGGTASPESYLDALEKELELAAASGTTRPATTVFIGGGTPSMLGASGLTRVLSAVRNTIGIAPGAEVTTESNPETTSPEFFSELLDAGYNRISLGMQSASSSVLRVLERKHTPGRAFDAALEAMNAGFLHVNLDMIYGTPTETDDDVRLTLERALDTGVDHISAYSLIVEDGTAMARKVHKGQLPPPNEDVYADRYGLIDTALRAQGFDWYEVSNWAKPGGECQHNLGYWLDGDWWGAGPGAHSHIASRRFFNVKHPSTYAQHLADGQLPIKEEELLDSTERHEESVMLGLRLRQGLELSRFTEAERAVIEKYVGLKLLHIYDGRVASTLQGRLLIDGIIADILVAYLEHHHHHH | not soluble
MRTPYCVADYLLDRLTDCGADHLFGVPGDYNLQFLDHVIDSPDICWVGCANELNASYAADGYARCKGFAALLTTFGVGELSAMNGIAGSYAEHVPVLHIVGAPGTAAQQRGELLHHTLGDGEFRHFYHMSEPITVAQAVLTEQNACYEIDRVLTTMLRERRPGYLMLPADVAKKAATPPVNALTHKQAHADSACLKAFRDAAENKLAMSKRTALLADFLVLRHGLKHALQKWVKEVPMAHATMLMGKGIFDERQAGFYGTYSGSASTGAVKEAIEGADTVLCVGTRFTDTLTAGFTHQLTPAQTIEVQPHAARVGDVWFTGIPMNQAIETLVELCKQHVHAGLMSSSSGAIPFPQPDGSLTQENFWRTLQTFIRPGDIILADQGTSAFGAIDLRLPADVNFIVQPLWGSIGYTLAAAFGAQTACPNRRVIVLTGDGAAQLTIQELGSMLRDKQHPIILVLNNEGYTVERAIHGAEQRYNDIALWNWTHIPQALSLDPQSECWRVSEAEQLADVLEKVAHHERLSLIEVMLPKADIPPLLGALTKALEACNNA | soluble
MGSDKIHHHHHHMIRFHIQADSDIPASTQLYNQIHFAIASRQYPPGHKLPSTRQLAMQTGLHRNTISKVYRLLEEDGVVEAQAGSGIYVRGGNDPRETAKSQRLRKQYPDIDQQIRDHIDTLLQQGCSLAEIRELFLAEVDWRLRCSASVLVTAPLQDLGAAELMYRELSQALGVPVEVVPLEELGAILKQKDSGTVVTSHYFFQDAEAITASLGARTIALDLYDYREELSFLSQQKEGSCIGIVSISPGILRAAEIIIHSLRGEALLIMSCQPNDQTKLEAMLRSASVIICDQSSIDNVKQRVSAIRDDLIRLPRLLCSKSYISEASIALLKRELGLN | not soluble
MRYIRQLCCVSLLCLSGSAVAANVRLQVEGLSGQLEKNVRAQLSTIESDEVTPDRRFRARVDDAIREGLKALGYYQPTIEFDLRPPPKKGRQVLIAKVTPGVPVLIGGTDVVLRGGARTDKDYLKLLDTRPAIGTVLNQGDYENFKKSLTSIALRKGYFDSEFTKAQLGIALGLHKAFWDIDYNSGERYRFGHVTFEGSQIRDEYLQNLVPFKEGDEYESKDLAELNRRLSATGWFNSVVVAPQFDKARETKVLPLTGVVSPRTENTIETGVGYSTDVGPRVKATWKKPWMNSYGHSLTTSTSISAPEQTLDFSYKMPLLKNPLEQYYLVQGGFKRTDLNDTESDSTTLVASRYWDLSSGWQRAINLRWSLDHFTQGEITNTTMLFYPGVMISRTRSRGGLMPTWGDSQRYSIDYSNTAWGSDVDFSVFQAQNVWIRTLYDRHRFVTRGTLGWIETGDFDKVPPDLRFFAGGDRSIRGYKYKSIAPKYANGDLKGASKLITGSLEYQYNVTGKWWGAVFVDSGEAVSDIRRSDFKTGTGVGVRWESPVGPIKLDFAVPVADKDEHGLQFYIGLGPELLEHHHHHH | not soluble
MTEQYYKIALLFNANKVYDRQVVEGIGQYIQASQCMWDIFVEDEFIYHTDTINQLSIDGIIADFDDPKTVELLQHTLIPTIAVGGSYKQADFYPHFPYIATDNMALVEMALSHLQEKGLSQFAFYGLQVNTHKHWSIERRDAFVELMEKNHYPIYLYEGVQVHAQNWLEEQQKLIVWLKSLPSHTGIIAVTDARARHLLQACEYSKIAVPEELCVVGIDNEELIQYLSRMSLSSVEQGTREIGYQAAKLLHKLLNGQKVSHTPILIPPITVHSRNSTDYRSLTDPLVIQAMHYIRHRACHRIKVGQVLDHLETSRSNLEQRFKNEMNKTIHQVIHEEKISRAKNLLQQTDISIKEITEICGYPSIQYFYSVFKKEFEMTPKEFRLNC | not soluble
MTLDLPELPFPLRPYGPDGRWSYADGVLTGVAGSRQDRFVPPTGESLESVSDAPRLLGAPDGDFQLIARVSVGFRGAFDAGVLYVHVGERAWAKLCLEYSPDVPTVCTVVTRGHSDDCNSFTVEGDSVWFRVSRTGRAFAFHASLDGERWTFVRLFTLGDEEETGSALVGFLAQAPTGEGCTVTYDHLEFRPAWPADLRDGSLEHHHHHH | not soluble
TAMRALIESLPTITEGEGRFVPYNDDEGGEEENVCTTEHVEMAKAKNWKVLTSWGEPFPGITALISIEGESEYSVYAQDGILYLSGMEQGLPVQ | not soluble
